In patent US20020099179A1 one finds Log conc. competitor (pM) data, which are given here for two substances.

The target in the assay is human CD4 antigen (human) (UniProt P01730). The assay can be described thus: competition with F1-OKT4A tracer on HPB-ALL cells, flow cytometry.

Substance murine OKT4A (antibody) had a Log conc. competitor (pM) at 50% inhibition of 2.4 log pM. The substance “chimeric OKT4A (chimeric light chain and chimeric heavy chain) (antibody)” had a Log conc. competitor (pM) at 50% inhibition of 2.9 log pM.
